Results published in PMC5737856 (Nucleic Acids Research, 2017).

B5: BEN domain 1 of BEND3 (domain or fragment, human)
chain: MVAKFQPPPEYQLTAAELKQIVDQSLSGGDLACRLLVQLFPELFSDVDFSRGCSACGFAAKRKLESLHLQLIRNYVEVYYPSVKDTAVWQAECLPQLNDFFSRFWAQREMED

Columns and labels:
[1] = target: T1, catalytic SNF2/HELIC region of PICH (human); test: MST
T1 sequence (Q2NKX8 whole entry, looked up): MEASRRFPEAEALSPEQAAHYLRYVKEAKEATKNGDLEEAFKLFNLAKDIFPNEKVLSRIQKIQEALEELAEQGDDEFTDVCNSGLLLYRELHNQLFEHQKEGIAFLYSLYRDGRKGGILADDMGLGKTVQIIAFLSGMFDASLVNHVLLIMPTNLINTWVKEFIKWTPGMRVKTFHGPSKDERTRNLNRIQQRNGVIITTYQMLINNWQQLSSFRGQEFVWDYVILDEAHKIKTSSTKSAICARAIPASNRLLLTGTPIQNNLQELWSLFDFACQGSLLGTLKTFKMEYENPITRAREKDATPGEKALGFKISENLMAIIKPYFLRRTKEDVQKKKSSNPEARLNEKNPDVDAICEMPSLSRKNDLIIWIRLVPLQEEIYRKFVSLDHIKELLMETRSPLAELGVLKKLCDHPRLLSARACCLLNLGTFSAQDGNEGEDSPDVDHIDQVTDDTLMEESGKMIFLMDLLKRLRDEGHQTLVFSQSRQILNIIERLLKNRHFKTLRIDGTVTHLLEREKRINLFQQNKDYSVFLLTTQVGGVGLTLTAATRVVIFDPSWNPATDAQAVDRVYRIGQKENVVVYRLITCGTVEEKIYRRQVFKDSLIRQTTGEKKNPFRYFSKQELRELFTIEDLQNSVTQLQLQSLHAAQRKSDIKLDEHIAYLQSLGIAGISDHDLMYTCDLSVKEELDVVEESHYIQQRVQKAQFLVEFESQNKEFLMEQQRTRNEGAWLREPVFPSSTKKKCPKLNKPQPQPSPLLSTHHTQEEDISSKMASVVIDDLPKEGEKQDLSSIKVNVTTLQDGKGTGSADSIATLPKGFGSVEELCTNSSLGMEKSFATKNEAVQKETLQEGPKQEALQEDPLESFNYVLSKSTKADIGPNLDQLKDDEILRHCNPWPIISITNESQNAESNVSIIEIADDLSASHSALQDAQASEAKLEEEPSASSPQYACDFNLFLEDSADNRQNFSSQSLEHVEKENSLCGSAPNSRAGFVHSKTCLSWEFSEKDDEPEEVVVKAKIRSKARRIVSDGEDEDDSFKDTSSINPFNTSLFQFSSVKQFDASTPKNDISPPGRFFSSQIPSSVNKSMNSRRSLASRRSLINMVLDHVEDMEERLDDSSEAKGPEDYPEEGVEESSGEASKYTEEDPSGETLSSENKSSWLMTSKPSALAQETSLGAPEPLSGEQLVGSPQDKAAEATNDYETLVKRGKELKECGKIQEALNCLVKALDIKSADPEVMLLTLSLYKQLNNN

BEN domain 1 of BEND3 = target: B5; test: MST
SEC + native gel or EMSA = target: the molecule itself; test: SEC + native gel or EMSA
[2] = target: T2, PICH, full length (recombinant) (human, UniProt Q2NKX8 1-1250); test: SPR
T2 sequence (looked up): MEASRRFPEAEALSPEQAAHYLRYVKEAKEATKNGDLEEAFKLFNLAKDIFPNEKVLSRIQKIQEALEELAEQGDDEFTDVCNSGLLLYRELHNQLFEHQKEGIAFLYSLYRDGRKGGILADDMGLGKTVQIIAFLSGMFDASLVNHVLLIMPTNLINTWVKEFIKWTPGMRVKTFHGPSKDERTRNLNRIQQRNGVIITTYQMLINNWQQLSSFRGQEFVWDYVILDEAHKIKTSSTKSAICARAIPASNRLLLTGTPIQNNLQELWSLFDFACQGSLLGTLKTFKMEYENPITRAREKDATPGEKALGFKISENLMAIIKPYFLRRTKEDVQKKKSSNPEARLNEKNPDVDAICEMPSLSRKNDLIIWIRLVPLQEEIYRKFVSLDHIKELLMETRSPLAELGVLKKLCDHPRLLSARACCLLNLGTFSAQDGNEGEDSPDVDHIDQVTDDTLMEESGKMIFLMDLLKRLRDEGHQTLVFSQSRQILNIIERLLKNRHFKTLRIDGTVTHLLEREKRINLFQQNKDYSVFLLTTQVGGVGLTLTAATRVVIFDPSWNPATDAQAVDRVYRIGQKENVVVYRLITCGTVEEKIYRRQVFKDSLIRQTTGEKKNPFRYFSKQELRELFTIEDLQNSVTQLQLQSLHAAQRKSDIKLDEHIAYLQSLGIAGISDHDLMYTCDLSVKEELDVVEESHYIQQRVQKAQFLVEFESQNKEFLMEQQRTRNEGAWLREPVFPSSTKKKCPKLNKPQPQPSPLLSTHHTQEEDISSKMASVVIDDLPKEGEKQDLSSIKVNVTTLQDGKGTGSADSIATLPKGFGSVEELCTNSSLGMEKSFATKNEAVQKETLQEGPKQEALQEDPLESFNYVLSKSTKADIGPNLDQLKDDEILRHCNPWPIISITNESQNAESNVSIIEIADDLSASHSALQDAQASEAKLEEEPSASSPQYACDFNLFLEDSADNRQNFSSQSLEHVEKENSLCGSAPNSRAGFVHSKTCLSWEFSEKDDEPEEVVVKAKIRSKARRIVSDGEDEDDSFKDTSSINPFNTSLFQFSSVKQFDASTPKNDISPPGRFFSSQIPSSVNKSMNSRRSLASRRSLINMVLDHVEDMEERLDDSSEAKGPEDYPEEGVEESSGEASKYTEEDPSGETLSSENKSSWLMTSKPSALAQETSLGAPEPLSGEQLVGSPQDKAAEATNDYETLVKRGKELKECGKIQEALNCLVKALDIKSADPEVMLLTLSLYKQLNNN

[3] = target: T2, PICH, full length (recombinant); test: MST

B1: BEN domain 3 of BEND3 (domain or fragment)
chain: VPGADCLLSKEQLRSIYESSLSIGNFASRLLVHLFPELFTHENLRKQYNCSGSLGKKQLDPSRIKLIRHYVQLLYPRAKNDRVWTLEFVGKLDERCRRRDTEQ
Kd [1]: 1500 nM

B2: N-terminal TPR motif of PICH (domain or fragment, human)
chain: AEALSPEQAAHYLRYVKEAKEATKNGDLEEAFKLFNLAKDIFPNEKVLSRIQKIQEA
Kd (BEN domain 1 of BEND3): 1200 ± 250 nM

B3: BEND3, full length (from HEK293 cells) (natural protein, human, UniProt Q5T5X7 1-828, looked up)
chain: MNSTEFTEDVEEVLKSITVKVETEAEDAALDCSVNSRTSEKHSVDSVLTALQDSSKRKQLVSDGLLDSVPGVKRRRLIPEALLAGMRNRENSSPCQGNGEQAGRGRSLGNVWPGEEEPCNDATTPSYKKPLYGISHKIMEKKNPPSGDLLNVYELFEKANASNSPSSLRLLNEPQKRDCGSTGAGTDNDPNIYFLIQKMFYMLNTLTSNMSQLHSKVDLLSLEVSRIKKQVSPTEMVAKFQPPPEYQLTAAELKQIVDQSLSGGDLACRLLVQLFPELFSDVDFSRGCSACGFAAKRKLESLHLQLIRNYVEVYYPSVKDTAVWQAECLPQLNDFFSRFWAQREMEDSQPSGQVASFFEAEQVDPGHFLDNKDQEEALSLDRSSTIASDHVVDTQDLTEFLDEASSPGEFAVFLLHRLFPELFDHRKLGEQYSCYGDGGKQELDPQRLQIIRNYTEIYFPDMQEEEAWLQQCAQRINDELEGLGLDAGSEGDPPRDDCYDSSSLPDDISVVKVEDSFEGERPGRRSKKIWLVPIDFDKLEIPQPDFEVPGADCLLSKEQLRSIYESSLSIGNFASRLLVHLFPELFTHENLRKQYNCSGSLGKKQLDPSRIKLIRHYVQLLYPRAKNDRVWTLEFVGKLDERCRRRDTEQRRSYQQQRKVHVPGPECRDLTSYAINPERFREEFEGPPLPPERSSKDFCKIPLDELVVPSPDFPVPSPYLLSDKEVREIVQQSLSVGNFAARLLVRLFPELFTAENLRLQYNHSGACNKKQLDPTRLRLIRHYVEAVYPVEKMEEVWHYECIPSIDERCRRPNRKKCDILKKAKKVEK
stoichiometry N (SEC + native gel or EMSA): 8 | Kd [2]: 700 ± 300 nM

B4: isolated N-terminal region of BEND3 (residues 1-534) (domain or fragment, human, UniProt Q5T5X7 1-534, looked up)
chain: MNSTEFTEDVEEVLKSITVKVETEAEDAALDCSVNSRTSEKHSVDSVLTALQDSSKRKQLVSDGLLDSVPGVKRRRLIPEALLAGMRNRENSSPCQGNGEQAGRGRSLGNVWPGEEEPCNDATTPSYKKPLYGISHKIMEKKNPPSGDLLNVYELFEKANASNSPSSLRLLNEPQKRDCGSTGAGTDNDPNIYFLIQKMFYMLNTLTSNMSQLHSKVDLLSLEVSRIKKQVSPTEMVAKFQPPPEYQLTAAELKQIVDQSLSGGDLACRLLVQLFPELFSDVDFSRGCSACGFAAKRKLESLHLQLIRNYVEVYYPSVKDTAVWQAECLPQLNDFFSRFWAQREMEDSQPSGQVASFFEAEQVDPGHFLDNKDQEEALSLDRSSTIASDHVVDTQDLTEFLDEASSPGEFAVFLLHRLFPELFDHRKLGEQYSCYGDGGKQELDPQRLQIIRNYTEIYFPDMQEEEAWLQQCAQRINDELEGLGLDAGSEGDPPRDDCYDSSSLPDDISVVKVEDSFEGERPGRRSKKIWLVPI
binding result (SEC + native gel or EMSA): binds

B5
Kd [3]: 200 ± 250 nM
